The values that follow come from patent publication US20240158537A1.

The experiment concerns the target IL-7 receptor (IL-7R), heterodimer of IL-7R alpha (CD127) and common gamma chain (CD132), on primary human T cells (human) (UniProt P16871). Briefly: cell-based or functional assay.

Sequence of IL-7 receptor (IL-7R), heterodimer of IL-7R alpha (CD127) and common gamma chain (CD132), on primary human T cells (human) (P16871 21-459, chain 1 of 2): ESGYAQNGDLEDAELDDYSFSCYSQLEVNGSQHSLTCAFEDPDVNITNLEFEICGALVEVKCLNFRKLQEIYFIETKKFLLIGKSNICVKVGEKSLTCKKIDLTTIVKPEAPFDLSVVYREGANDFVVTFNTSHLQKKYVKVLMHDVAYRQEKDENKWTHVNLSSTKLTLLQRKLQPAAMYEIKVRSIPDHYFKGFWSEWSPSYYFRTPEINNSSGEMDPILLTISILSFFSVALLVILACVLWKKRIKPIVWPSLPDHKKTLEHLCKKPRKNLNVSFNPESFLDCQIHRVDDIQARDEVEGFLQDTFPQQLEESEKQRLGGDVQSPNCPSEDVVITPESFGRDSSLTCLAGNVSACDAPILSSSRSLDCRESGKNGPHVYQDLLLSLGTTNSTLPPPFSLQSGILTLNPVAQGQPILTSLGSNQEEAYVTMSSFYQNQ
Sequence of IL-7 receptor (IL-7R), heterodimer of IL-7R alpha (CD127) and common gamma chain (CD132), on primary human T cells (human) (P31785 23-369, chain 2 of 2, further chain): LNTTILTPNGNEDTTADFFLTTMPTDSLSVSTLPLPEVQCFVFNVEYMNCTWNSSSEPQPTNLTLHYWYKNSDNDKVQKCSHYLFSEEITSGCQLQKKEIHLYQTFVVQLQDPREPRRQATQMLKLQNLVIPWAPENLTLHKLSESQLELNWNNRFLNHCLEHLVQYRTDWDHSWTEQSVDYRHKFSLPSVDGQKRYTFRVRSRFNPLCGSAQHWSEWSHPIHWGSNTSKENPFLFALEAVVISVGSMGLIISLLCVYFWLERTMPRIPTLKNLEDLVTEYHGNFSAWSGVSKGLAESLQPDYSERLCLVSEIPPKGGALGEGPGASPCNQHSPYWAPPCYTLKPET

On to “Synthetic IL-7 of SEQ ID NO: 3 (M17Nle, M27Nle, N36Hse, M54Nle, M69Nle, D76Hse, E114Hse, M147Nle) (from UniProt P13232 26-177) (ligand)”, for which the Avg EC50 (nM) (human pSTAT5), CD4 Memory came out at 0.005 nM; the Avg EC50 (nM) (human pSTAT5), CD4 Naive was determined as 0.005 nM; the Avg EC50 (nM) (human pSTAT5), CD4 Treg amounted to 0.015 nM; the Avg EC50 (nM) (human pSTAT5), CD8 Memory turned out to be 0.006 nM. This substance also gave an Avg EC50 (nM) (human pSTAT5), CD8 Naive of 0.006 nM.
